From the supplement of paper PMC12042874
± gives the uncertainty stated by the source.

Assay: amyloid nucleation score (Sup35N fusion, yeast selection) (log enrichment); library NNK1; higher = more nucleation; inactive = no reads after selection
Outline: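 The nucleation score equals the log enrichment of output over input reads from DiMSum, centred on the mode score of non-aggregating sequences. It was computed only for sequences with 100 or more input reads. The reads came from Illumina sequencing of plasmid inserts from psi-negative yeast expressing Sup35N fused to peptides of 20 random codons, induced with 100 μM copper sulfate for 24 hours and grown 7 days at 30°C without adenine and uracil.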

Row | Substance | amyloid nucleation score
1 | PCYRLWLVSAWAVTQEFTSW | 1.35 ± 0.14
2 | PDHLTIQSCDARYGFASQL | 1.78 ± 0.47
3 | PDMCQERNYCELYPCKARAT | -0.612 ± 0.41
4 | PDSCIENLDMWYTFNGDNDT | -0.828 ± 0.3
5 | PDSTVARVDVSPELIFCLKS | -0.708 ± 0.6
6 | PDTYRLWRWSCIFEKCCDEG | -0.194 ± 0.41
7 | PEDFHNLFLKINGYLSYAFV | -1.54 ± 1.1
8 | PFTCCAVVPFSVTFSRVLES | inactive
9 | PFTNQPMSPARHLFI | -1.88 ± 2.4
10 | PGFPNLVTSRTLIVCQL | inactive
11 | PGLFYETDHVASVVVCKSPH | -0.231 ± 0.45
12 | PIFLGLFDDRYMG | 0.116 ± 0.45
13 | PIIILFL | 1.15 ± 0.54
14 | PILCGTSLSQINDYYGV | -0.369 ± 0.56
15 | PITMQSMSFFRRVLLVFFLY | 0.813 ± 0.5
16 | PKCLNESMVGRRWLAIMGRV | 0.328 ± 0.72
17 | PLAAYCSVDYGQKIQIATVP | -0.541 ± 0.42
18 | PLAMNSFVIVIDGRLHVLGD | 4.72 ± 0.12
19 | PLLEATNCDLHGLVRLLMRF | 0.651 ± 0.72
20 | PLPPLVMLPQ | -0.481 ± 0.8
21 | PLPVNPYPTHATIGWPRISG | -0.427 ± 0.55

Row | Substance | amyloid nucleation score
22 | PLSVFTTPPSDHCDIKGKIE | -0.852 ± 2.1
23 | PLVCRGLLSRCGNPSGKCGR | -0.125 ± 1.7
24 | PLVNVYSSAYYSRHLKGLCV | -0.782 ± 0.69
25 | PLVSTHALSAGILYCFKFYR | 5.57 ± 0.097
26 | PMFWRYILFSANNEPQFIRQ | 0.073 ± 0.24
27 | PMLGGRESEEPRVGWKVGWV | 0.377 ± 0.27
28 | PMSGVGYGRMRLSAAWPVDK | -0.604 ± 0.78
29 | PMSRIKWILLSGLSKGLSYG | 2.41 ± 0.17
30 | PMTKCMLSSLGWCAHVPVRE | 0.369 ± 0.52
31 | PMVIYNFEFNFGVSSDRIYA | 4.35 ± 0.15
32 | PNFWVRFKYGYLSSLNSRTV | -0.375 ± 0.52
33 | PNTLYSLTIIMSARLNSSLL | 0.371 ± 0.57
34 | PPGIRAYM | -0.036 ± 0.35
35 | PPSLQ | -0.263 ± 1.4
36 | PPVHSDFKWAFVWVQLVWRG | -0.016 ± 0.53
37 | PQALGSTHLQTRRDQHVIF | -0.046 ± 0.53
38 | PRGLVWNVPRLSKTVASILF | -0.942 ± 0.73
39 | PRLLLGAHQSYLGACSAGYM | 1.06 ± 0.71
40 | PRPQLPVKYLYSRLIGETCG | 3.25 ± 0.071
41 | PRWSLCIPSVLSGVITTIMT | 0.286 ± 0.27
42 | PSCILMNLEVYND | 0.827 ± 0.42

Row | Substance | amyloid nucleation score
43 | PSCRC | inactive
44 | PSFRWIGSEMSTMFMLQVTL | 0.058 ± 0.55
45 | PSHFHHQ | 0.305 ± 0.32
46 | PSQHSIPLLTQVYVLL | 5.54 ± 0.059
47 | PSRLIYDYAAFTVVGLLEMF | -0.235 ± 0.56
48 | PSSACCGSHFLCEQEFMICY | 0.146 ± 0.71
49 | PSYHSRPRSPYGNIEYKEHR | 0.46 ± 0.36
50 | PTDMPGHVTMSRGSCLEWVL | 0.355 ± 0.36
51 | PTGSYKAGSSSSLVYPFED | -0.062 ± 0.52
52 | PTHDILFVTDSLTAKANDMV | -0.189 ± 0.32
53 | PTIKRGTVGFNWVGRACSGK | -0.529 ± 0.57
54 | PTPEANAIKGLYQRGNCVYG | -0.515 ± 1
55 | PTRCQVWLGGTLHVRVVDLS | -0.424 ± 0.4
56 | PTRLPYGTSLIWDTSHANWG | -0.706 ± 0.59
57 | PVMLF | 4.33 ± 0.11
58 | PVQLRFRSSNIWTLMNQVFI | 0.612 ± 0.95
59 | PVRSL | -0.515 ± 0.48
60 | PVYMGIAALYGPGCLTLLTV | 2.07 ± 0.3
61 | PWACSTSRSMLPSSSLPALM | 0.814 ± 0.66
62 | PWITCCKVNGIFLTDRCRVV | 0.574 ± 0.3
63 | PWRAGYGRRKLLSEGDFRLS | 0.218 ± 0.62

Row | Substance | amyloid nucleation score
64 | PWYDRPRVSYSAFLVWIQLH | -0.417 ± 0.93
65 | PYIVKVCGCDPLVHLFI | 0.608 ± 0.23
66 | PYKGIVMFVSGPP | -0.068 ± 0.54
67 | PYLTICKIDYFYYLGRDSFF | 4.47 ± 0.055
68 | QCAYGWFRIIVITRFFCEDS | -0.701 ± 0.37
69 | QCCLNVLDC | 7.65 ± 0.084
70 | QCSMGGRYVRQDS | -0.197 ± 0.6
71 | QDDISLKFLGFGMIVSLIMF | 0.007 ± 0.24
72 | QDRPYVFY | -0.331 ± 0.44
73 | QECMKLNLAFYWSDCVVRSF | 1.76 ± 0.49
74 | QFLLLPGNHHRFRSRHIRTL | -0.255 ± 0.26
75 | QFVSLKFRVGLATS | 0.045 ± 0.95
76 | QGLGALMVRSFSFYLFVW | -0.241 ± 1.4
77 | QIIKENFRRSY | 2.45 ± 0.55
78 | QIRLYSSGWMFGCAAYVVSM | 0.853 ± 0.41
79 | QISNRYPLVRPTLLFCGFPF | -0.224 ± 0.4
80 | QKDSTPISGWFSFYMSVPFK | inactive
81 | QKSVWKSITGRASFYSSLVR | inactive
82 | QKSYMCRVGYPF | 0.501 ± 0.72
83 | QLESMIYCVVSFYAAGVNFE | -0.468 ± 1.9
84 | QLTGW | -0.036 ± 0.22
